Here are results for 78 sequences from the supplement of paper PMC7877785.

This data set in a line: self-splicing fitness, log relative to wild type (ln ratio); higher = more splicing; Tetrahymena group I intron in knt gene, E. coli kanamycin selection, DiMSum; sequences stand for … in CUCUCU…GGAGGGAAAAGUUAUCAGGCAUGCACCUGGUAGCUAGUCUUUAAACCAAUAGAUUGCAUCGGUUUAAAAGGCAAGACCGUCAAAUUGCGGGAAAGGGGUCAACAGCCGUUCAGUACCAAGUCUCAGGGGAAACUUUGAGAUGGCCUUGCAAAGGGUAUGGUAAUAAGCUGACGGACAUGGUCCUAACCACGCAGCCAAGUCCUAAGUCAACAGAUCUUCUGUUGAUAUGGAUGCAGUUCACAGACUAAAUGUCGGUCGGGGAAGAUGUAUUCUUCUCAUAAGAUAUAGUCGGACCUCUCCUUAAUGGGAGCUAGCGGAUGAAGUGAUGCAACACUGGAGCCGCUGGGAACUAAUUUGUAUGCGAAAGUAUAUUGAUUAGUUUUGGAGUACUCGUGGUCG
The method in brief: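 DiMSum derived fitness as the error-weighted combination of fold changes across replicates, kanamycin versus no kanamycin, normalised to wild type. E. coli BL21(DE3) held the library, which randomised all eight P1ex-region intron nucleotides within the knt kanamycin-resistance gene on pET-22b(+). Six replicate transformations grew overnight at 37°C or 30°C on LB agar with or without 25 μg/mL kanamycin, also containing 100 μg/mL carbenicillin, 50 μM IPTG and 0.2% rhamnose, and pooled colonies were amplicon-sequenced on an Illumina HiSeq 2500.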

± gives the uncertainty stated by the source.

CUCCAGCAAUAUUACGCGGC: the “self-splicing fitness (ln)” value is, setting by setting: (30 °C) -1.8 ± 0.26; (37 °C) -2.08 ± 0.39.
On the same counts, the results for UAAUAGCAAUAUUACGCUAU are -2.93 ± 0.19 and -1.85 ± 0.21.
The corresponding values for GCUAAGCAAUAUUACGCUUC are -2.89 ± 0.18 and -2.56 ± 0.23.
CUAUAGCAAUAUUACGUAGC: the “self-splicing fitness (ln)” value runs as follows: (30 °C) -4.05 ± 0.31; (37 °C) -3.11 ± 0.43.
On the same counts, the results for GAGGAGCAAUAUUACGAAGG are -4.59 ± 0.46 and -2.39 ± 0.27.
Consider AUUAAGCAAUAUUACGACUU, for which the “self-splicing fitness (ln)” value is, setting by setting: (30 °C) 0.276 ± 0.082; (37 °C) -0.0124 ± 0.11.
With AUAUAGCAAUAUUACGCAAA, the “self-splicing fitness (ln)” value is -1.94 ± 0.24 (30 °C) and -1.69 ± 0.24 (37 °C).
Take CGUUAGCAAUAUUACGAUAU: the “self-splicing fitness (ln)” value runs as follows: (30 °C) -3.41 ± 0.14; (37 °C) -2.22 ± 0.14.
On the same counts, the results for AGGCAGCAAUAUUACGAGGA are -3.31 ± 0.28 and -2.55 ± 0.26.
Regarding GGUAAGCAAUAUUACGAAAU, the “self-splicing fitness (ln)” value (30 °C) was -1.94 ± 0.34 and the “self-splicing fitness (ln)” value (37 °C) is -0.431 ± 0.32.
CAUGAGCAAUAUUACGGCUU: the “self-splicing fitness (ln)” value was -2.99 ± 0.17 (30 °C) and -2.92 ± 0.29 (37 °C).
The corresponding values for GUCAAGCAAUAUUACGACCU are -3.31 ± 0.41 and -0.756 ± 0.46.
As to GUAAAGCAAUAUUACGCCUU, the “self-splicing fitness (ln)” value (30 °C) is -1.57 ± 0.11 and the “self-splicing fitness (ln)” value (37 °C) is 0.238 ± 0.15.
Take UCUCAGCAAUAUUACGACCG: the “self-splicing fitness (ln)” value (37 °C) is -1.07 ± 0.47.
Regarding GGCCAGCAAUAUUACGAAGC, the “self-splicing fitness (ln)” value was -2 ± 0.11 (30 °C) and 0.134 ± 0.13 (37 °C).
The corresponding values for AAUUAGCAAUAUUACGUCAC are -3.93 ± 0.36 and -2.41 ± 0.33.
As to UCAUAGCAAUAUUACGACGU, the “self-splicing fitness (ln)” value runs as follows: (30 °C) -1.76 ± 0.12; (37 °C) -1.37 ± 0.15.
The corresponding values for AACAAGCAAUAUUACGCUCA are -0.608 ± 0.054 and -0.27 ± 0.071.
CAAAAGCAAUAUUACGACAA: the “self-splicing fitness (ln)” value is -1.85 ± 0.13 (30 °C) and -1.64 ± 0.15 (37 °C).
On the same counts, the results for CAACAGCAAUAUUACGCGCG are -0.385 ± 0.059 and -0.492 ± 0.082.
On the same counts, the results for GGAUAGCAAUAUUACGCUGA are -1.13 ± 0.13 and -1.19 ± 0.14.
For UUGGAGCAAUAUUACGGUGU, the “self-splicing fitness (ln)” value by setting is: (30 °C) -3.09 ± 0.32; (37 °C) -1.64 ± 0.32.
On the same counts, the results for AAAAAGCAAUAUUACGCGUG are -1.12 ± 0.064 and -1.18 ± 0.076.
The corresponding values for CGUGAGCAAUAUUACGGAUU are -4.38 ± 0.36 and -3.78 ± 0.46.
The corresponding values for ACUGAGCAAUAUUACGUGGU are -4.07 ± 0.14 and -2.56 ± 0.13.
For UGGUAGCAAUAUUACGUCCU, the “self-splicing fitness (ln)” value (30 °C) amounted to 0.31 ± 0.2 and the “self-splicing fitness (ln)” value (37 °C) came out at 0.713 ± 0.3.
Regarding CGAGAGCAAUAUUACGACAA, the “self-splicing fitness (ln)” value (30 °C) is -1.65 ± 0.39.
Consider CCCGAGCAAUAUUACGCAUA, for which the “self-splicing fitness (ln)” value is, setting by setting: (30 °C) -3.7 ± 0.43; (37 °C) -2.06 ± 0.21.
The corresponding values for ACUGAGCAAUAUUACGCGCU are -3.03 ± 0.23 and -2.1 ± 0.26.
For the sequence UGCGAGCAAUAUUACGACUC, the “self-splicing fitness (ln)” value by setting is: (30 °C) -2.71 ± 0.27; (37 °C) -2.25 ± 0.25.
With CGGCAGCAAUAUUACGCGCU, the “self-splicing fitness (ln)” value is -4.1 ± 0.25 (30 °C) and -1.99 ± 0.25 (37 °C).
On the same counts, the results for UCUAAGCAAUAUUACGCCUU are -3.44 ± 0.36 and -2.32 ± 0.27.
The corresponding values for GUAUAGCAAUAUUACGAAUG are -3 ± 0.24 and -2.32 ± 0.28.
On to CUUUAGCAAUAUUACGUACC, for which the “self-splicing fitness (ln)” value (37 °C) is -1.68 ± 0.3.
Turning to GUAAAGCAAUAUUACGCAGU, the “self-splicing fitness (ln)” value (30 °C) was -2.99 ± 0.18 and the “self-splicing fitness (ln)” value (37 °C) is -1.06 ± 0.16.
For CAUGAGCAAUAUUACGGUCG, the “self-splicing fitness (ln)” value was -0.34 ± 0.091 (30 °C) and 0.0674 ± 0.1 (37 °C).
Turning to AUCAAGCAAUAUUACGAUAG, the “self-splicing fitness (ln)” value runs as follows: (30 °C) -2.36 ± 0.35; (37 °C) -1.63 ± 0.43.
The corresponding values for GUAGAGCAAUAUUACGUAUG are -3.88 ± 0.22 and -3.78 ± 0.23.
The corresponding values for ACGAAGCAAUAUUACGCAGC are -2.47 ± 0.21 and -0.916 ± 0.18.
On the same counts, the results for CAUGAGCAAUAUUACGGAAA are -3.26 ± 0.29 and -2.17 ± 0.24.
Consider CUGAAGCAAUAUUACGACUC, for which, under “30 °C”, the “self-splicing fitness (ln)” value is -1.82 ± 0.22.
On to AGGGAGCAAUAUUACGCGGU, for which the “self-splicing fitness (ln)” value was -3.98 ± 0.21 (30 °C) and -3.05 ± 0.24 (37 °C).
On to GGCAAGCAAUAUUACGCCGU, for which the “self-splicing fitness (ln)” value by setting is: (30 °C) -2.44 ± 0.34; (37 °C) -0.00259 ± 0.29.
ACCAAGCAAUAUUACGAAAU: the “self-splicing fitness (ln)” value was -2.89 ± 0.12 (30 °C) and -2.08 ± 0.15 (37 °C).
Regarding GGUUAGCAAUAUUACGGAUG, the “self-splicing fitness (ln)” value reads like this: (30 °C) -0.648 ± 0.1; (37 °C) -0.92 ± 0.14.
As for AAUUAGCAAUAUUACGAGAC, where the note is “37 °C”, the “self-splicing fitness (ln)” value is -2.39 ± 0.39.
Turning to UGUCAGCAAUAUUACGAGGG, the “self-splicing fitness (ln)” value was -3.72 ± 0.2 (30 °C) and -1.37 ± 0.14 (37 °C).
Regarding UGGCAGCAAUAUUACGUCCC, the “self-splicing fitness (ln)” value was 0.385 ± 0.14 (30 °C) and -0.074 ± 0.19 (37 °C).
Regarding AUGCAGCAAUAUUACGUGGG, the “self-splicing fitness (ln)” value (37 °C) was -2.97 ± 0.28.
Regarding GCUGAGCAAUAUUACGUUAA, the “self-splicing fitness (ln)” value is -3.04 ± 0.34 (30 °C) and -2.78 ± 0.32 (37 °C).
On the same counts, the results for ACGUAGCAAUAUUACGAGUU are -4.04 ± 0.17 and -1.3 ± 0.13.
Take AACCAGCAAUAUUACGAACC: the “self-splicing fitness (ln)” value (30 °C) was -0.246 ± 0.13 and the “self-splicing fitness (ln)” value (37 °C) is 0.00425 ± 0.19.
In the case of GACGAGCAAUAUUACGUCGG, under “37 °C”, the “self-splicing fitness (ln)” value is -1.96 ± 0.34.
As for AACGAGCAAUAUUACGCCUG, the “self-splicing fitness (ln)” value (30 °C) is -3.77 ± 0.32.
On to GACAAGCAAUAUUACGUCAC, for which the “self-splicing fitness (ln)” value by setting is: (30 °C) -2.9 ± 0.23; (37 °C) -2.75 ± 0.29.
With GUGUAGCAAUAUUACGGCUU, the “self-splicing fitness (ln)” value (30 °C) is -0.494 ± 0.078 and the “self-splicing fitness (ln)” value (37 °C) was 0.195 ± 0.11.
On the same counts, the results for GUUAAGCAAUAUUACGUACG are -1.83 ± 0.14 and -0.662 ± 0.14.
As for UUUAAGCAAUAUUACGCGAC, the “self-splicing fitness (ln)” value is -2.4 ± 0.18 (30 °C) and -2.75 ± 0.22 (37 °C).
The corresponding values for UAGCAGCAAUAUUACGAAUC are -3.68 ± 0.42 and -2.03 ± 0.27.
For the sequence GGAAAGCAAUAUUACGGAAC, the “self-splicing fitness (ln)” value (30 °C) was -3.58 ± 0.43.
Consider UACUAGCAAUAUUACGUGGU, for which the “self-splicing fitness (ln)” value is, setting by setting: (30 °C) -2.87 ± 0.14; (37 °C) -2.75 ± 0.17.
Turning to UCCGAGCAAUAUUACGAGCU, the “self-splicing fitness (ln)” value (37 °C) is -2.68 ± 0.48.
In the case of GUCGAGCAAUAUUACGCACU, the “self-splicing fitness (ln)” value runs as follows: (30 °C) -1.47 ± 0.14; (37 °C) -0.953 ± 0.18.
With UGCCAGCAAUAUUACGCAUU, the “self-splicing fitness (ln)” value is, setting by setting: (30 °C) -3.81 ± 0.46; (37 °C) -1.24 ± 0.21.
On the same counts, the results for UCUUAGCAAUAUUACGGAGC are -3.74 ± 0.4 and -0.68 ± 0.14.
With AUUGAGCAAUAUUACGGCUU, the “self-splicing fitness (ln)” value reads like this: (30 °C) -2.62 ± 0.21; (37 °C) -0.8 ± 0.17.
The corresponding values for UGAAAGCAAUAUUACGCACU are -0.504 ± 0.094 and 0.371 ± 0.11.
For the sequence CAACAGCAAUAUUACGGCGC, the “self-splicing fitness (ln)” value by setting is: (30 °C) -1.94 ± 0.076; (37 °C) -1.24 ± 0.096.
The corresponding values for CGCGAGCAAUAUUACGUGCC are -3.8 ± 0.42 and -2.96 ± 0.48.
On the same counts, the results for CUUUAGCAAUAUUACGACGG are -0.354 ± 0.13 and -0.827 ± 0.16.
For GACAAGCAAUAUUACGUCCG, the “self-splicing fitness (ln)” value is -1.98 ± 0.27 (30 °C) and -2.47 ± 0.28 (37 °C).
On to GUGAAGCAAUAUUACGAUGA, for which the “self-splicing fitness (ln)” value was -0.639 ± 0.075 (30 °C) and 0.631 ± 0.093 (37 °C).
For the sequence UACCAGCAAUAUUACGUGCA, the “self-splicing fitness (ln)” value is, setting by setting: (30 °C) -0.43 ± 0.065; (37 °C) 0.246 ± 0.09.
On the same counts, the results for ACUGAGCAAUAUUACGUGAA are -2.94 ± 0.17 and -2.09 ± 0.17.
As for GGAUAGCAAUAUUACGGCCG, the “self-splicing fitness (ln)” value was -0.857 ± 0.18 (30 °C) and 0.103 ± 0.2 (37 °C).
Consider AUGUAGCAAUAUUACGAAUA, for which the “self-splicing fitness (ln)” value runs as follows: (30 °C) -2.75 ± 0.26; (37 °C) -1.22 ± 0.21.
The corresponding values for CUUAAGCAAUAUUACGUAAG are -2.83 ± 0.1 and -1.27 ± 0.098.
Regarding GUCCAGCAAUAUUACGUCGA, the “self-splicing fitness (ln)” value is -0.796 ± 0.2 (30 °C) and -0.589 ± 0.19 (37 °C).
